Among the data in PMC10244618 are enrichment values, retold here.

First the molecules themselves.
B1: NF2 (merlin) isoform 7, human, full length (507 aa, lacks exons 2-3 = isoform-1 residues 39-121; exon-16 C-terminus), P35240-4 (parent)
chain: MAGAIASRMSFSSLKRKQPKTFTVRIVTMDAEMEFNCEVKKQILDEKIYCPPEASVLLASYAVQAKYGDYDPSVHKRGFLAQEELLPKRVINLYQMTPEMWEERITAWYAEHRGRARDEAEMEYLKIAQDLEMYGVNYFAIRNKKGTELLLGVDALGLHIYDPENRLTPKISFPWNEIRNISYSDKEFTIKPLDKKIDVFKFNSSKLRVNKLILQLCIGNHDLFMRRRKADSLEVQQMKAQAREEKARKQMERQRLAREKQMREEAERTRDELERRLLQMKEEATMANEALMRSEETADLLAEKAQITEEEAKLLAQKAAEAEQEMQRIKATAIRTEEEKRLMEQKVLEAEVLALKMAEESERRAKEADQLKQDLQEAREAERRAKQKLLEIATKPTYPPMNPIPAPLPPDIPSFNLIGDSLSFDFKDTDMKRLSMEIEKEKVEYMEKSKHLQEQLNELKTEIEALKLKERETALDILHNENSDRGGSSKHNTIKKPQAQGRRPICI

Values joined by “and” are separate entries in the source; they are usually repeats but may differ in a detail not shown here. Equal entries are not always repeated.

One test covers variants of B1. Description: reverse yeast two-hybrid deep mutational scan (rY2H-seq): NF2 isoform 7 mutant library as bait mated with wild-type prey strains; selection on medium lacking adenine for non-interacting pairs; NextSeq paired-end sequencing; enrichment vs …. As to conditions: with PIK3R3 (phosphatidylinositol 3-kinase regulatory subunit gamma), Q92569; yeast diploids after mating (RBait_S3 x RPrey_S3), 30 °C, selection for reporter genes on NB agar; human tyrosine kinase ABL2 co-expressed as the active kinase …; HIGHER = WEAKER BINDING (the opposite of display enrichments): higher = stronger loss of interaction: reverse Y2H selects yeast in which bait and prey do NOT interact (growth without adenine), so a …; hits-only table; scale: rY2H score; numbering: uniprot, sequence starts at 1. For orientation: Reporter assays use an easily measured gene product as a stand-in for the process of interest.
As to L57F, the enrichment was 1.98.

In the case of S204F, the enrichment was 3.76 and 3.21.

Turning to I213F, the enrichment was determined as 15.3.

The test is the same for the next values; noted with them: with EMILIN1 (elastin microfibril interfacer 1), Q9Y6C2; yeast diploids after mating (RBait_S3 x RPrey_S3), 30 °C, selection for reporter genes on NB agar; human tyrosine kinase ABL2 co-expressed as the active kinase …; HIGHER = WEAKER BINDING (the opposite of display enrichments): higher = stronger loss of interaction: reverse Y2H selects yeast in which bait and prey do NOT interact (growth without adenine), so a …; hits-only table; scale: rY2H score; numbering: uniprot, sequence starts at 1.
As for I505F, the enrichment was determined as 1.61.

N402F: the enrichment is 4.91.

On to I213F, for which the enrichment was 3.35.

Staying with this test, now noted: with KDM1A (lysine-specific histone demethylase 1A; the table's label AOF2 is a gene synonym of KDM1A), O60341; yeast diploids after mating (RBait_S3 x RPrey_S3), 30 °C, selection for reporter genes on NB agar; human tyrosine kinase ABL2 co-expressed as the active kinase …; HIGHER = WEAKER BINDING (the opposite of display enrichments): higher = stronger loss of interaction: reverse Y2H selects yeast in which bait and prey do NOT interact (growth without adenine), so a …; hits-only table; scale: rY2H score; numbering: uniprot, sequence starts at 1.
Take I505F: the enrichment stood at 2.14.

As to S60F, the enrichment turned out to be 3.51.

Regarding I213F, the enrichment is 6.76.

Staying with this test, now noted: with NF2 C-terminal domain (wild type; homomeric NF2-NF2 interaction), P35240; yeast diploids after mating (RBait_S3 x RPrey_S3), 30 °C, selection for reporter genes on NB agar; human ABL2 co-expressed as the kinase-dead K35M mutant …; HIGHER = WEAKER BINDING (the opposite of display enrichments): higher = stronger loss of interaction: reverse Y2H selects yeast in which bait and prey do NOT interact (growth without adenine), so a …; hits-only table; partner unresolved; scale: rY2H score; numbering: uniprot, sequence starts at 1.
Take I505F: the enrichment turned out to be 2.29.

With I213F, the enrichment worked out at 4.21.

The test is the same for the next values; noted with them: with KDM1A (lysine-specific histone demethylase 1A; the table's label AOF2 is a gene synonym of KDM1A), O60341; yeast diploids after mating (RBait_S3 x RPrey_S3), 30 °C, selection for reporter genes on NB agar; human ABL2 co-expressed as the kinase-dead K35M mutant …; HIGHER = WEAKER BINDING (the opposite of display enrichments): higher = stronger loss of interaction: reverse Y2H selects yeast in which bait and prey do NOT interact (growth without adenine), so a …; hits-only table; scale: rY2H score; numbering: uniprot, sequence starts at 1.
N402F: the enrichment was 24.7.

Still in this test, the particulars now being: with EMILIN1 (elastin microfibril interfacer 1), Q9Y6C2; yeast diploids after mating (RBait_S3 x RPrey_S3), 30 °C, selection for reporter genes on NB agar; human ABL2 co-expressed as the kinase-dead K35M mutant …; HIGHER = WEAKER BINDING (the opposite of display enrichments): higher = stronger loss of interaction: reverse Y2H selects yeast in which bait and prey do NOT interact (growth without adenine), so a …; hits-only table; scale: rY2H score; numbering: uniprot, sequence starts at 1.
Regarding I213F, the enrichment was 7.19 and 3.36.

As for A406F, the enrichment is 10.8.

With S172F, the enrichment stood at 1.58.
